This is an account of results in IntAct's records for PubMed 22904686.

B1: Latent membrane protein 1 (Epstein-Barr virus (strain B95-8) (HHV-4)), P03230 (parent)
chain: MEHDLERGPPGPRRPPRGPPLSSSLGLALLLLLLALLFWLYIVMSDWTGGALLVLYSFALMLIIIILIIFIFRRDLLCPLGALCILLLMITLLLIALWNLHGQALFLGIVLFIFGCLLVLGIWIYLLEMLWRLGATIWQLLAFFLAFFLDLILLIIALYLQQNWWTLLVDLLWLLLFLAILIWMYYHGQRHSDEHHHDDSLPHPQQATDDSGHESDSNSNEGRHHLLVSGAGDGPPLCSQNLGAPGGGPDNGPQDPDNTDDNGPQDPDNTDDNGPHDPLPQDPDNTDDNGPQDPDNTDDNGPHDPLPHSPSDSAGNDGGPPQLTEEVENKGGDQGPPLMTDGGGGHSHDSGHGGGDPHLPTLLLGSSGSGGDDDDPHGPVQLSYYD

The variants in the experiment derive from B1. Conditions: with tnik_human TNIK.
Regarding Y384G, the “effect of a mutation on the interaction” value is “disrupting interaction strength”.
